Consider one protein from PMC7195466, “A common allosteric mechanism regulates homeostatic inactivation of auxin and gibberellin” (Nature Communications, 2020).

This data set concerns the molecule itself. In words: cell-based or functional assay.

B1: Oryza sativa gibberellin 2-oxidase 3 (OsGA2ox3), wild type (enzyme, rice (Oryza sativa), UniProt Q8S0S6 1-327, looked up)
chain: MVVLAGPPAVDHIPLLRSPDPGDVFSGVPVVDLGSPGAARAVVDACERYGFFKVVNHGVATDTMDKAESEAVRFFSQTQPDKDRSGPAYPFGYGSKRIGFNGDMGWLEYLLLALDDASLADACTVPSCAVFRAALNEYISGVRKVAVRVMEAMSEGLGIAQADALSALVTAEGSDQVFRVNHYPPCRALQGLGCSVTGFGEHTDPQLVSVLRSNGTSGLQIALRDGQWVSVPSDRDSFFVNVGDSLQVLTNGRFKSVKHRVVANSLKSRVSFIYFGGPPLAQRIAPLPQLLGEGEQSLYKEFTWDEYKKAAYKSRLGDNRLAQFEKK
For B1, the “Vmax of the tetramer and dimer against the monomers (forms separated by gel filtration)” value was greater than 3 fold.
